In assay [1] the target is GST-talin1 A366/368 (mouse) (UniProt P26039). Description: pull-down.
The target of the next assay is T1, GST-Tiam1-PDZ4 (mouse, UniProt Q60610 765-1234).
T1 sequence: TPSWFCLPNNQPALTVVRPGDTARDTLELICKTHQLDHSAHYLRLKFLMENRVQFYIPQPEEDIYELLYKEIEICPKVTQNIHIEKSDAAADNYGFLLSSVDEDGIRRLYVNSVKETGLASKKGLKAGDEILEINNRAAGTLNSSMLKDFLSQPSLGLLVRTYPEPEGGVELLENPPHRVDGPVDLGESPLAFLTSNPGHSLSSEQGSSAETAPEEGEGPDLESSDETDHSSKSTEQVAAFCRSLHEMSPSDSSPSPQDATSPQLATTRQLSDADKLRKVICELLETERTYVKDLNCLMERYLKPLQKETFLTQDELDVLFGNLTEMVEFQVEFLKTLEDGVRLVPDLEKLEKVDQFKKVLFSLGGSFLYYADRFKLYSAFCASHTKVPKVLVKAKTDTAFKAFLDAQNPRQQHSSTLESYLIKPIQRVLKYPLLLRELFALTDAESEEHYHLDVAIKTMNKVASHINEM
Description: SPR.

For two molecules, decrease of association relative to wild type and Kd results are on record in article PMC3471226 (The Journal of Cell Biology, 2012).

In assay [1], “Tiam1-C1199-HA (from UniProt Q60610 1-1591) (domain or fragment)” came in with a decrease of association relative to wild type of 90%.

B1: His-talin1 (1–433 aa) (domain or fragment, mouse, UniProt P26039 1-433, looked up)
chain: MVALSLKISIGNVVKTMQFEPSTMVYDACRMIRERIPEALAGPPNDFGLFLSDDDPKKGIWLEAGKALDYYMLRNGDTMEYRKKQRPLKIRMLDGTVKTIMVDDSKTVTDMLMTICARIGITNHDEYSLVRELMEEKKDEGTGTLRKDKTLLRDEKKMEKLKQKLHTDDELNWLDHGRTLREQGVEEHETLLLRRKFFYSDQNVDSRDPVQLNLLYVQARDDILNGSHPVSFDKACEFAGFQCQIQFGPHNEQKHKAGFLDLKDFLPKEYVKQKGERKIFQAHKNCGQMSEIEAKVRYVKLARSLKTYGVSFFLVKEKMKGKNKLVPRLLGITKECVMRVDEKTKEVIQEWSLTNIKRWAASPKSFTLDFGDYQDGYYSVQTTEGEQIAQLIAGYIDIILKKKKSKDHFGLEGDEESTMLEDSVSPKKSTVLQ
Take B1: the Kd in the assay with GST-Tiam1-PDZ4 was roughly 430 nM.
